For this experiment, the target named is T1, Mouse recombinant EMMPRIN (mrEMMPRIN) (Mus musculus, UniProt P18572).
T1 construct: mrEMMPRIN is a chimeric protein composed of the extracellular portion of EMMPRIN fused to the Fc portion of human IgG; purchased R&D Systems
Kind of experiment: Indirect ELISA, specificity of the antibodies to EMMPRIN. As to conditions: mrEMMPRIN 200 ng/ml coat; OD of Fc binding subtracted; n=4. The procedure:
Indirect ELISA: This assay was developed to determine the specificity of the polyclonal antibodies for the EMMPRIN protein. Mouse recombinant EMMPRIN (mrEMMPRIN, 200 ng/ml in PBS, R&D Systems) or the Fc portion of the human IgG were applied on wells of a 96-well plate and incubated at 4° C. overnight to coat the wells. Excess antigens were removed by washing three times with wash buffer (0.05% Tween-20 in PBS), followed by blocking of the remaining free protein-binding sites with blocking buffer (1% BSA in PBS) for 2 hours at room temperature. After additional washes, strips of mouse recombinant EMMPRIN or Fc were coated with each of the primary antibodies (immune or pre-immune sera) diluted 1:500 and 1:5000 in PBS, and incubated for 2 hours at room temperature. […] The reaction was stopped with stop solution (0.25M HCL), and the absorbance of each well was measured at 450 nm and at a reference of 540 nm. […]
The specificity and ability of the antibodies to recognize mrEMMPRIN in its native structure were also tested by indirect ELISA, using mrEMMPRIN (200 ng/ml) or human IgG Fc protein (hFC, 200 ng/ml) to coat 96-well plates. […] P values were calculated by the Mann-Whitney T test. **, p<0.01, relative to pre-immune sera. […]

T1 sequence (P18572 with tags, fused parts or gaps isoform P18572-2 limits assumed): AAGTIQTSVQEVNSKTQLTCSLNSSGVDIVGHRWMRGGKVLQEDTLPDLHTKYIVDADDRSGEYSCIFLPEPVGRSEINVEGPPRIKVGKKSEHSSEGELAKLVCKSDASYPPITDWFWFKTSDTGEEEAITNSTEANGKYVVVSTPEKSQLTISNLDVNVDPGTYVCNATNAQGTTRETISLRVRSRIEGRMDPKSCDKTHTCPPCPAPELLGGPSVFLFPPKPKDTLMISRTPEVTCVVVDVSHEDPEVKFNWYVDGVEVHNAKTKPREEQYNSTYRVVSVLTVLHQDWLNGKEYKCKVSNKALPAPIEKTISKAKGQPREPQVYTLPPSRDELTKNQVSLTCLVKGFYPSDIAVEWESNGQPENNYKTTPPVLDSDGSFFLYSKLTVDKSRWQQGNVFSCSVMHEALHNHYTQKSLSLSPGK

“GHRWMRGGKVLC [Peptide 161, 12aa peptide from the EC-I domain of mouse EMMPRIN]”: the “Immune sera (OD values, indirect ELISA)” value is 0.052 ± 0.026.

For the origin of these results see US9688732B2, “Extracellular matrix metalloproteinase inducer (EMMPRIN) peptides and binding antibodies” (Rappaport Family Institute for Research in the Medical …, priority 2012, dated 2017).
